Measured values taken from patent publication US20230140200A1 (TRUSTEES OF COLUMBIA UNIVERSITY IN THE CITY OF NEW YORK, published 2023).

What was measured:
[1] = target: T1, human transferrin receptor protein 1 (TfR1) (human, UniProt P02786 1-760); assay: immunoprecipitation with 3F3-FMA from HT-1080 cell lysate and mass spectrometry; staining lost after siRNA knockdown of TfR1
T1 construct: whole, on cells; Endogenous full-length protein of human cell lines; no recombinant construct was used; also called transferrin receptor 1; CD71
Procedure: The beads were used for mass spectrometry.
Trypsin digestion was performed overnight at 37° C. Supernatants were collected and dried down in a speed-vac, and peptides were dissolved in a solution containing 3% acetonitrile and 0.1% formic acid. Peptides were desalted with C18 disk-packed stage-tips. Desalted peptides were injected onto an EASY-Spray PepMap RSLC C18 50 cm×75 μm column (Thermo Scientific), which was coupled to the Orbitrap Fusion Tribrid mass spectrometer (Thermo Scientific). Peptides were eluted with a non-linear 110 min gradient of 5-30% buffer B (0.1% (v/v) formic acid, 100% acetonitrile) at a flow rate of 250 nl/min. The column temperature was maintained at a constant 50° C. during all experiments. Thermo Scientific™ Orbitrap Fusion™ Tribrid™ mass spectrometer was used for peptide MS/MS analysis. Survey scans of peptide precursors were performed from 400 to 1575 m/z at 120K FWHM resolution (at 200 m/z) with a 2×10⁵ ion count target and a maximum injection time of 50 ms. […] CID fragmentation was applied with 35% collision energy and resulting fragments were detected using the rapid scan rate in the ion trap. […]
The antigen of 3F3-FMA was identified using immunoprecipitation and mass spectrometry. […] Then magnetic beads were added and washed, and bead-immobilized proteins were analyzed by mass spectrometry. […]

[2] = target: T2, mouse TfR1 protein (mouse, UniProt Q62351 1-763); assay: immunofluorescence on normal mouse liver frozen tissue sections
T2 construct: whole, on cells; Endogenous protein in mouse tissue sections
T2 sequence (Q62351 whole entry): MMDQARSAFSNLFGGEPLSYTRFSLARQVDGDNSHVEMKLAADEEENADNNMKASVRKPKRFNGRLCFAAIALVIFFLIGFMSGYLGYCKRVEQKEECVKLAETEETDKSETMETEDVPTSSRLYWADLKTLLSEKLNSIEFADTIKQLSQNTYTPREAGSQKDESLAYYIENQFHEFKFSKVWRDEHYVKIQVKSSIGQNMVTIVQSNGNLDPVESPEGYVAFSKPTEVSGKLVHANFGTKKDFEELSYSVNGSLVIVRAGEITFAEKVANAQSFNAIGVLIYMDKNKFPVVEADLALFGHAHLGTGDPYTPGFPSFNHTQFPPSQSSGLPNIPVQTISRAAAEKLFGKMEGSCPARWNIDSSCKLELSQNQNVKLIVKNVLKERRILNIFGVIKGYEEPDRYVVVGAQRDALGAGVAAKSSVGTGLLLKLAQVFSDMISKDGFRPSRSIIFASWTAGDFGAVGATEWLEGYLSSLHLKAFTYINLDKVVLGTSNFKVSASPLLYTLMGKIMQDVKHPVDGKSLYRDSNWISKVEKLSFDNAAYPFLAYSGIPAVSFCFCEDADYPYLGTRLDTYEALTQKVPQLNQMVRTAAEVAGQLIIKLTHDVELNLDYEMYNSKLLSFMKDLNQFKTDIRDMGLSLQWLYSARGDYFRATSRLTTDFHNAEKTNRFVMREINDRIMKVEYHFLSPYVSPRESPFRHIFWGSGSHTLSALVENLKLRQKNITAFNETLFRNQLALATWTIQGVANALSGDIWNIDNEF

T1 sequence (P02786 whole entry): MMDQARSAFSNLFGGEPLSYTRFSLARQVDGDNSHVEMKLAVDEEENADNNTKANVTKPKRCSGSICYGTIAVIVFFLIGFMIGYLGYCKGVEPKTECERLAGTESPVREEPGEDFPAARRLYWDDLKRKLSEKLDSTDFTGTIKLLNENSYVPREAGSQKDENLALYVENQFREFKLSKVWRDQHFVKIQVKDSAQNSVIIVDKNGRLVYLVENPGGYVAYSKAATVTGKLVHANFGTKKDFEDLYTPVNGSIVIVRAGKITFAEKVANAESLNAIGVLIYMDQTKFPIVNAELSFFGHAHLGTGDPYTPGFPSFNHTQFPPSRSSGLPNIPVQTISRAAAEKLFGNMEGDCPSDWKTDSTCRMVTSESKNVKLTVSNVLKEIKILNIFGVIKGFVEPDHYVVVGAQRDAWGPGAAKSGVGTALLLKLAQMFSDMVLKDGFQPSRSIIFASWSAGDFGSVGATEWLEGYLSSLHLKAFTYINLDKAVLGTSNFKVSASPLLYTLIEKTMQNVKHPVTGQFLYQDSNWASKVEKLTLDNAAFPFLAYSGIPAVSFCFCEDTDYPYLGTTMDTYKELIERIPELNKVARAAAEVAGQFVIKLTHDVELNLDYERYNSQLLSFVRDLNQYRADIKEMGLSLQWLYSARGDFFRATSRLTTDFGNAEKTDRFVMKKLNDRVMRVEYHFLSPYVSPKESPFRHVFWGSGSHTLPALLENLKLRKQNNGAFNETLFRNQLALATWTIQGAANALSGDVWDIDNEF

binding result [1]: binds
binding result [2]: binds
B1: 3F3 anti-Ferroptotic Membrane Antibody (3F3-FMA) (antibody, V domains shown)
VH: EVLLQQSGTELVRPGALVKLSCKASGFNIQDLYIHWVKQRPEQGLEWIGWIDPETDNTIYDPKFQGKASITADTSSNTAYLQLSSLTSEDTAMYYCSTGLLQWYFDVWGAGTAVTVSS
VL: DIVMTQSPSSLAMSIGQKVTMRCKSSQSLLNSYNQKNCLAWYQQKPGQSPKLLLYFVSTRESGVPDRFIGSGSGTDFTLTISSVQAEDLADYFCQQHYSTPLTFGAGTKLELK
notes: the entries 1 and 2 should match these; also called mAb 3F3 FMA; clone FH3F3
